Measured values published in patent publication US20190167710A1 (UNIVERSITY OF PITTSBURGH OF THE COMMONWEALTH SYSTEM OF …, published 2019).
Values belong to the binder of their own block, whether it stands above or below them.

Columns and labels:
[1] = molecular target: T1, anaplastic lymphoma kinase (ALK), mouse, endogenous in iBMDMs and RAW264.7 cells (mouse, UniProt P97793 19-1621, limits assumed); assay: co-immunoprecipitation from iBMDMs and RAW264.7 cells after 3'3'-cGAMP or c-di-AMP (10 µg/ml, 16 h)
T1 construct: Endogenous protein in lysates of mouse macrophage lines (co-immunoprecipitation); also called ALK Receptor Tyrosine Kinase
T1 sequence (P97793 19-1621 limits assumed): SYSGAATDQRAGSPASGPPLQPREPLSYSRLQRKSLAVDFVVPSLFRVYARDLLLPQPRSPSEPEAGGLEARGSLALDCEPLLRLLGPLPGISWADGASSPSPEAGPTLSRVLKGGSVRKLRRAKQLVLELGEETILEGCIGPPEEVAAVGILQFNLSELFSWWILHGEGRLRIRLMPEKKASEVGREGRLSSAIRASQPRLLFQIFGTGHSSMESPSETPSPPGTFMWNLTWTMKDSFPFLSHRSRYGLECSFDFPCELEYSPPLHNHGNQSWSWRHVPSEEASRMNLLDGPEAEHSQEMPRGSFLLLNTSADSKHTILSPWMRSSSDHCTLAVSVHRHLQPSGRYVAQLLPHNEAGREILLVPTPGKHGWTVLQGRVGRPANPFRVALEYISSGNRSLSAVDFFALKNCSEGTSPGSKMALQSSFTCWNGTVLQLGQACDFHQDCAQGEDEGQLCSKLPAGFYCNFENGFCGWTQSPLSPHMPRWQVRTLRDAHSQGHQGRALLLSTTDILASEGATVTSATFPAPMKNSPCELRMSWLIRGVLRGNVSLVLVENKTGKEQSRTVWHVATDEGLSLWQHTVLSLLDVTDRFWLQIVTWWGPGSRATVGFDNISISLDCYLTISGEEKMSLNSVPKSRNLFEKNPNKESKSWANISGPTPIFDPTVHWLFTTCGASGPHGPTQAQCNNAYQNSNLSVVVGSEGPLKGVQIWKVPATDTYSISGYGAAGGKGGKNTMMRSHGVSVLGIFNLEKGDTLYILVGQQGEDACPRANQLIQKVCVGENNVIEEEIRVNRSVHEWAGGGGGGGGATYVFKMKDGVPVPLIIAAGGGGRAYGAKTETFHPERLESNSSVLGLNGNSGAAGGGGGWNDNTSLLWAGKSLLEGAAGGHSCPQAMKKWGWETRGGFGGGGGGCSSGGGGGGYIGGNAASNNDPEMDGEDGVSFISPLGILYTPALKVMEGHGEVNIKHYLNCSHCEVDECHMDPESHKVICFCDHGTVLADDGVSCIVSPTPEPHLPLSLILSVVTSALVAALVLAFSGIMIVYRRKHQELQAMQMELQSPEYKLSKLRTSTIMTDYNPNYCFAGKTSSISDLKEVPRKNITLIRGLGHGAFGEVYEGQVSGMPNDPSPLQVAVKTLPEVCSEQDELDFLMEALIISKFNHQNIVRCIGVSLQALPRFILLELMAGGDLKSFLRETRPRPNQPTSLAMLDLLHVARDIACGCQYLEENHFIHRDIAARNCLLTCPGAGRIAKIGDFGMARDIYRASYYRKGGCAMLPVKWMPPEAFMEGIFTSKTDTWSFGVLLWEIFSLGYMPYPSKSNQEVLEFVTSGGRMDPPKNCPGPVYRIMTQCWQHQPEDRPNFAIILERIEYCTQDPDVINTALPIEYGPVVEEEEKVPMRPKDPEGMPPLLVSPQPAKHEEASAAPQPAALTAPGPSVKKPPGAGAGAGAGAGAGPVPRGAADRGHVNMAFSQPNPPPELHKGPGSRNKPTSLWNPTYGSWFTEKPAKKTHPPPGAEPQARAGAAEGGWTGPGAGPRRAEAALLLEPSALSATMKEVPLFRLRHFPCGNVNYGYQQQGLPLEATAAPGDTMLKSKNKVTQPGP
Protocol: (§1) Concentrations of proteins in the supernatant were determined by bicinchoninic acid assay. […] Following incubation, agarose/sepharose beads were washed extensively with PBS and proteins were eluted by boiling in 2× sodium dodecyl sulfate (SDS) sample buffer before SDS-PAGE electrophoresis.
(§2) To elucidate the possible role of ALK in the regulation of the STING signaling pathway, we tested whether ALK promotes the phosphorylation of core components of the STING pathway (STING, TBK1, and cGAS) through protein-protein interaction using co-immunoprecipitation techniques.

[2] = molecular target: T2, anaplastic lymphoma kinase (ALK), human, endogenous in THP1 cells (human, UniProt Q9UM73 19-1620, limits assumed); assay: co-immunoprecipitation from THP1 cells after 3'3'-cGAMP or c-di-AMP (10 µg/ml, 16 h)
T2 construct: Endogenous protein in lysates of human THP1 monocytes; also called ALK Receptor Tyrosine Kinase
T2 sequence (Q9UM73 19-1620 limits assumed): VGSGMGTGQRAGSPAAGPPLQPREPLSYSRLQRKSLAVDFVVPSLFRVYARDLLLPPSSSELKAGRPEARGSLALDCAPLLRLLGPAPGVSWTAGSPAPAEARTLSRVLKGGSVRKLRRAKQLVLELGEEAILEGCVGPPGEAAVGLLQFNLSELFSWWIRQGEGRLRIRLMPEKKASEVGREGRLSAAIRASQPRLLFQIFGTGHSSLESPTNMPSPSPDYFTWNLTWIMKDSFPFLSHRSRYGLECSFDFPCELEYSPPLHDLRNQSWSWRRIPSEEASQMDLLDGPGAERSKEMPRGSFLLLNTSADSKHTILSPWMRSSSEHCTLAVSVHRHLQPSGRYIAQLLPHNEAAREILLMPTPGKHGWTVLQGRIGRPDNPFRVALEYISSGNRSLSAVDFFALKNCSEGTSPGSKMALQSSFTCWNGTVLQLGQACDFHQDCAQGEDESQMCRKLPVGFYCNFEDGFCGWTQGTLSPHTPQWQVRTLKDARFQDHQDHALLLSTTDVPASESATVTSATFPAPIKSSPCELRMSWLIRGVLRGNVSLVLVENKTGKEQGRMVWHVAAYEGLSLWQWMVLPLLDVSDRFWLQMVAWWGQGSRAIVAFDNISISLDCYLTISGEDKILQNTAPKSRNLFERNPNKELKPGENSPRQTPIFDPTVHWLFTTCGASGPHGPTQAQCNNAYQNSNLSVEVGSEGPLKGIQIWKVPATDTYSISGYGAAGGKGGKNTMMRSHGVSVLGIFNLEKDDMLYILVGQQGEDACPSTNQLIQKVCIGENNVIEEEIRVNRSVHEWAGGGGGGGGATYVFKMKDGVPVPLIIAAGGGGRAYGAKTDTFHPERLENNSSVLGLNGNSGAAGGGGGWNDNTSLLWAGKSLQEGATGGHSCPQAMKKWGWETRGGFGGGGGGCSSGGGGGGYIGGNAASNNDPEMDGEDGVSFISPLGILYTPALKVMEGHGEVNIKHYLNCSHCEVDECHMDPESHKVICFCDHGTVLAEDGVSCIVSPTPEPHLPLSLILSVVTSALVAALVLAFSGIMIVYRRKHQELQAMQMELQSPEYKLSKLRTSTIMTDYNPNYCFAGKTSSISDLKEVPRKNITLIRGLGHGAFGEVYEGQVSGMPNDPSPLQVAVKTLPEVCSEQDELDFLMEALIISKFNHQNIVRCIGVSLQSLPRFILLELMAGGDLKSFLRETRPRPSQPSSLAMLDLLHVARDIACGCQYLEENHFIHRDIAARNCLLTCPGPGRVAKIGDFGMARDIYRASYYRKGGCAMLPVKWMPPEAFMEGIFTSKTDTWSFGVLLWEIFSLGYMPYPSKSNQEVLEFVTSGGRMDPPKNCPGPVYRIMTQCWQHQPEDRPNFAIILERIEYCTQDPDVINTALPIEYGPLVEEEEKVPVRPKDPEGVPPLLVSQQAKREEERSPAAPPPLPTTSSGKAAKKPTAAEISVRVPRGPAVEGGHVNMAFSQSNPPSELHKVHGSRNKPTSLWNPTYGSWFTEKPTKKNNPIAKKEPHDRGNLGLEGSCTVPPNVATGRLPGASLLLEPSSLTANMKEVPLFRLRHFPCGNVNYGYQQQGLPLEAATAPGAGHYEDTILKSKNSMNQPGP
Protocol: as §1, §2

B1: TANK-binding kinase 1 (TBK1), mouse, endogenous in iBMDMs and RAW264.7 cells (enzyme, UniProt Q9WUN2 1-729, looked up)
chain: MQSTSNHLWLLSDILGQGATANVFRGRHKKTGDLYAVKVFNNISFLRPVDVQMREFEVLKKLNHKNIVKLFAIEEETTTRHKVLIMEFCPCGSLYTVLEEPSNAYGLPESEFLIVLRDVVGGMNHLRENGIVHRDIKPGNIMRVIGEDGQSVYKLTDFGAARELEDDEQFVSLYGTEEYLHPDMYERAVLRKDHQKKYGATVDLWSVGVTFYHAATGSLPFRPFEGPRRNKEVMYKIITGKPSGAISGVQKAENGPIDWSGDMPLSCSLSQGLQALLTPVLANILEADQEKCWGFDQFFAETSDVLHRMVIHVFSLQHMTAHKIYIHSYNTAAVFHELVYKQTKIVSSNQELIYEGRRLVLELGRLAQHFPKTTEENPIFVTSREQLNTVGLRYEKISLPKIHPRYDLDGDASMAKAVTGVVCYACRTASTLLLYQELMRKGVRWLVELVKDDYNETVHKKTEVVITLDFCIRNIEKTVKVYEKLMKVNLEAAELGEISDIHTKLLRLSSSQGTIESSLQDISSRLSPGGLLADTWAHQEGTHPRDRNVEKLQVLLNCITEIYYQFKKDKAERRLAYNEEQIHKFDKQKLYYHATKAMSHFSEECVRKYEAFKDKSEEWMRKMLHLRKQLLSLTNQCFDIEEEVSKYQDYTNELQETLPQKMLAASGGVKHAMAPIYPSSNTLVEMTLGMKKLKEEMEGVVKELAENNHILERFGSLTMDGGLRNVDCL
notes: Endogenous protein in cell lysates; also called TBK1/NAK
binding result [1]: no binding

B2: TIR-domain-containing adapter-inducing interferon-β (TRIF), mouse, endogenous in iBMDMs and RAW264.7 cells (other, UniProt Q80UF7 1-732, looked up)
chain: MDNPGPSLRGAFGILGALERDRLTHLKHKLGSLCSGSQESKLLHAMVLLALGQDTEARVSLESLKMNTVAQLVAHQWADMETTEGPEEPPDLSWTVARLYHLLAEENLCPASTRDMAYQVALRDFASQGDHQLGQLQNEAWDRCSSDIKGDPSGFQPLHSHQGSLQPPSASPAVTRSQPRPIDTPDWSWGHTLHSTNSTASLASHLEISQSPTLAFLSSHHGTHGPSKLCNTPLDTQEPQLVPEGCQEPEEISWPPSVETSVSLGLPHEISVPEVSPEEASPILPDALAAPDTSVHCPIECTELSTNSRSPLTSTTESVGKQWPITSQRSPQVPVGDDSLQNTTSSSPPAQPPSLQASPKLPPSPLSSASSPSSYPAPPTSTSPVLDHSETSDQKFYNFVVIHARADEQVALRIREKLETLGVPDGATFCEEFQVPGRGELHCLQDAIDHSGFTILLLTASFDCSLSLHQINHALMNSLTQSGRQDCVIPLLPLECSQAQLSPDTTRLLHSIVWLDEHSPIFARKVANTFKTQKLQAQRVRWKKAQEARTLKEQSIQLEAERQNVAAISAAYTAYVHSYRAWQAEMNKLGVAFGKNLSLGTPTPSWPGCPQPIPSHPQGGTPVFPYSPQPPSFPQPPCFPQPPSFPQPPSFPLPPVSSPQSQSFPSASSPAPQTPGPQPLIIHHAQMVQLGVNNHMWGHTGAQSSDDKTECSENPCMGPLTDQGEPLLETPE
notes: Endogenous protein in cell lysates; also called TICAM-1
binding result [1]: no binding

More lines, now with the values ahead:

binding result [1]: no binding
B3: stimulator of interferon genes (STING), mouse, endogenous in iBMDMs and RAW264.7 cells (other, UniProt Q3TBT3 1-378, looked up)
chain: MPYSNLHPAIPRPRGHRSKYVALIFLVASLMILWVAKDPPNHTLKYLALHLASHELGLLLKNLCCLAEELCHVQSRYQGSYWKAVRACLGCPIHCMAMILLSSYFYFLQNTADIYLSWMFGLLVLYKSLSMLLGLQSLTPAEVSAVCEEKKLNVAHGLAWSYYIGYLRLILPGLQARIRMFNQLHNNMLSGAGSRRLYILFPLDCGVPDNLSVVDPNIRFRDMLPQQNIDRAGIKNRVYSNSVYEILENGQPAGVCILEYATPLQTLFAMSQDAKAGFSREDRLEQAKLFCRTLEEILEDVPESRNNCRLIVYQEPTDGNSFSLSQEVLRHIRQEEKEEVTMNAPMTSVAPPPSVLSQEPRLLISGMDQPLPLRTDLI
notes: Endogenous protein in cell lysates

binding result [2]: no binding
B4: TANK-binding kinase 1 (TBK1), human, endogenous in THP1 cells (enzyme, UniProt Q9UHD2 1-729, looked up)
chain: MQSTSNHLWLLSDILGQGATANVFRGRHKKTGDLFAIKVFNNISFLRPVDVQMREFEVLKKLNHKNIVKLFAIEEETTTRHKVLIMEFCPCGSLYTVLEEPSNAYGLPESEFLIVLRDVVGGMNHLRENGIVHRDIKPGNIMRVIGEDGQSVYKLTDFGAARELEDDEQFVSLYGTEEYLHPDMYERAVLRKDHQKKYGATVDLWSIGVTFYHAATGSLPFRPFEGPRRNKEVMYKIITGKPSGAISGVQKAENGPIDWSGDMPVSCSLSRGLQVLLTPVLANILEADQEKCWGFDQFFAETSDILHRMVIHVFSLQQMTAHKIYIHSYNTATIFHELVYKQTKIISSNQELIYEGRRLVLEPGRLAQHFPKTTEENPIFVVSREPLNTIGLIYEKISLPKVHPRYDLDGDASMAKAITGVVCYACRIASTLLLYQELMRKGIRWLIELIKDDYNETVHKKTEVVITLDFCIRNIEKTVKVYEKLMKINLEAAELGEISDIHTKLLRLSSSQGTIETSLQDIDSRLSPGGSLADAWAHQEGTHPKDRNVEKLQVLLNCMTEIYYQFKKDKAERRLAYNEEQIHKFDKQKLYYHATKAMTHFTDECVKKYEAFLNKSEEWIRKMLHLRKQLLSLTNQCFDIEEEVSKYQEYTNELQETLPQKMFTASSGIKHTMTPIYPSSNTLVEMTLGMKKLKEEMEGVVKELAENNHILERFGSLTMDGGLRNVDCL
notes: as for B1

binding result [2]: no binding
B5: cyclic-guanosine monophosphate-adenosine monophosphate (cGAMP) synthase (cGAS), human, endogenous in THP1 cells (enzyme, UniProt Q8N884 1-522, looked up)
chain: MQPWHGKAMQRASEAGATAPKASARNARGAPMDPTESPAAPEAALPKAGKFGPARKSGSRQKKSAPDTQERPPVRATGARAKKAPQRAQDTQPSDATSAPGAEGLEPPAAREPALSRAGSCRQRGARCSTKPRPPPGPWDVPSPGLPVSAPILVRRDAAPGASKLRAVLEKLKLSRDDISTAAGMVKGVVDHLLLRLKCDSAFRGVGLLNTGSYYEHVKISAPNEFDVMFKLEVPRIQLEEYSNTRAYYFVKFKRNPKENPLSQFLEGEILSASKMLSKFRKIIKEEINDIKDTDVIMKRKRGGSPAVTLLISEKISVDITLALESKSSWPASTQEGLRIQNWLSAKVRKQLRLKPFYLVPKHAKEGNGFQEETWRLSFSHIEKEILNNHGKSKTCCENKEEKCCRKDCLKLMKYLLEQLKERFKDKKHLDKFSSYHVKTAFFHVCTQNPQDSQWDRKDLGLCFDNCVTYFLQCLRTEKLENYFIPEFNLFSSNLIDKRSKEFLTKQIEYERNNEFPVFDEF
notes: as for B3
